One series relates to P03420. Briefly: SEC; Superdex 200 Increase 10/300 GL, antigens (40 ug) in PBS; percent of total antigen in aggregate, trimer and monomer fractions by area under the curve. (SEC sorts molecules by how far they enter the pores of the column.)
Series [1] has as its target hMPV Fsol (non-stabilised soluble hMPV F, post-fusion control) (human metapneumovirus (hMPV)). The series is described as above.
In series [2] the target is RSV F DsCav1 (pre-fusion stabilised comparator with foldon) (respiratory syncytial virus (RSV) | bacteriophage T4) (UniProt P03420). The description is as above.
Assay in series [3]: as above
Series [4] concerns the target hMPV F DsCavEs2 (pre-fusion stabilised comparator with foldon) (human metapneumovirus (hMPV) | bacteriophage T4). The series is described as above.

This is an account of results in paper PMC12270161.

With “RSV F DsCav1 (pre-fusion stabilised comparator with foldon)”, the “percent trimer (SEC, area under curve)” value in the series with P03420 is listed as “RSV DSCav1, 69% trimer”.
For the substance “hMPV Fsol (non-stabilised soluble hMPV F, post-fusion control) (domain or fragment)”, the stoichiometry N – broadly, a count of units in the complex or per binding partner – in series [1] was found to be 3.
In series [2], “RSV F DsCav1 (pre-fusion stabilised comparator with foldon) (from UniProt P03420 26-524)” displayed a stoichiometry N of 3.
Turning to “hMPV Fsol (non-stabilised soluble hMPV F, post-fusion control)”, the “percent trimer (SEC, area under curve)” value in series [3] was “hMPV Fsol, 25% aggregate, 19% trimer, 56% monomer”.
For the substance “hMPV F DsCavEs2 (pre-fusion stabilised comparator with foldon)”, the “percent trimer (SEC, area under curve)” value in series [3] was “hMPV DSCavEs2, 54% trimer”. The substance further yielded a stoichiometry N in series [4] of 3.
